According to patent CN111217911A (DONGGUAN PENGZHI BIO TECH CO LTD, dated 2020):

Biological target: T1, 人胃蛋白酶原II HPGII (fitzgerald, 30R-AP039) (human, UniProt P20142 17-388)
T1 construct: Bought antigen; also called PGⅡ; PGC
T1 sequence (looked up): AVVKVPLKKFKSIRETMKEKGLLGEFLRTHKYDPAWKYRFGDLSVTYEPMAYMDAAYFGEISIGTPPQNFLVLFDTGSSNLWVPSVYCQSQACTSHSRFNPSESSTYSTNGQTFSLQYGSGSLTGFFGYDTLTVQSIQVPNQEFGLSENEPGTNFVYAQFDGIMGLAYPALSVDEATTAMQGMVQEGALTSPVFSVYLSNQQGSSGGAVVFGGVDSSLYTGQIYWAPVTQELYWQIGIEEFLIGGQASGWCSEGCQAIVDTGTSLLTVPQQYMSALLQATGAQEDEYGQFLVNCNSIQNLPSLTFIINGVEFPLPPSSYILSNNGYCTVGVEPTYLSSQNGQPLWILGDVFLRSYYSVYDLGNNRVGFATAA
Experiment: BLI, AMC sensor, antibody immobilised, HPGII in solution

B1: Anti-HPG II 11C2 重组抗体 (WT) (antibody, V domains shown)
VH: QIQLVQSGPELKKPGETVKISCKASGYSFTQHGMNWVKQAPGKGLKWMGWINSFTAQPTFADDFRGRFAFSLETSASTAYLQINNLKNEDMATYFCARRGENYIYYYAMDYWGQGTSVTVSS
VL: DVVVTQTPLSLPVSFGDQVSISCRSNQSIAQSYGNTYLSWYLHKPGQSPQLLIYGLSQRFSGVPDRFSGSGSGTDFTLKISTIKPEDLGMYYCLNGSHQPWTFGGGTKLEIK
Question: Which results are given for B1?
Answer: Kd: 5.15 nM; koff: 0.00181 s⁻¹; kon: 351000 M⁻¹ s⁻¹
